B1: High osmolarity signaling protein SHO1 (Saccharomyces cerevisiae), P40073 (parent)
chain: MSISSKIRPTPRKPSRMATDHSFKMKKFYADPFAISSISLAIVSWVIAIGGSISSASTNESFPRFTWWGIVYQFLIICSLMLFYCFDLVDHYRIFITTSIAVAFVYNTNSATNLVYADGPKKAAASAGVILLSIINLIWILYYGGDNASPTNRWIDSFSIKGIRPSPLENSLHRARRRGNRNTTPYQNNVYNDAIRDSGYATQFDGYPQQQPSHTNYVSSTALAGFENTQPNTSEAVNLHLNTLQQRINSASNAKETNDNSNNQTNTNIGNTFDTDFSNGNTETTMGDTLGLYSDIGDDNFIYKAKALYPYDADDDDAYEISFEQNEILQVSDIEGRWWKARRANGETGIIPSNYVQLIDGPEEMHR
B2: High osmolarity signaling protein SHO1 (Saccharomyces cerevisiae), P40073 (parent)
chain: B1 chain
partner: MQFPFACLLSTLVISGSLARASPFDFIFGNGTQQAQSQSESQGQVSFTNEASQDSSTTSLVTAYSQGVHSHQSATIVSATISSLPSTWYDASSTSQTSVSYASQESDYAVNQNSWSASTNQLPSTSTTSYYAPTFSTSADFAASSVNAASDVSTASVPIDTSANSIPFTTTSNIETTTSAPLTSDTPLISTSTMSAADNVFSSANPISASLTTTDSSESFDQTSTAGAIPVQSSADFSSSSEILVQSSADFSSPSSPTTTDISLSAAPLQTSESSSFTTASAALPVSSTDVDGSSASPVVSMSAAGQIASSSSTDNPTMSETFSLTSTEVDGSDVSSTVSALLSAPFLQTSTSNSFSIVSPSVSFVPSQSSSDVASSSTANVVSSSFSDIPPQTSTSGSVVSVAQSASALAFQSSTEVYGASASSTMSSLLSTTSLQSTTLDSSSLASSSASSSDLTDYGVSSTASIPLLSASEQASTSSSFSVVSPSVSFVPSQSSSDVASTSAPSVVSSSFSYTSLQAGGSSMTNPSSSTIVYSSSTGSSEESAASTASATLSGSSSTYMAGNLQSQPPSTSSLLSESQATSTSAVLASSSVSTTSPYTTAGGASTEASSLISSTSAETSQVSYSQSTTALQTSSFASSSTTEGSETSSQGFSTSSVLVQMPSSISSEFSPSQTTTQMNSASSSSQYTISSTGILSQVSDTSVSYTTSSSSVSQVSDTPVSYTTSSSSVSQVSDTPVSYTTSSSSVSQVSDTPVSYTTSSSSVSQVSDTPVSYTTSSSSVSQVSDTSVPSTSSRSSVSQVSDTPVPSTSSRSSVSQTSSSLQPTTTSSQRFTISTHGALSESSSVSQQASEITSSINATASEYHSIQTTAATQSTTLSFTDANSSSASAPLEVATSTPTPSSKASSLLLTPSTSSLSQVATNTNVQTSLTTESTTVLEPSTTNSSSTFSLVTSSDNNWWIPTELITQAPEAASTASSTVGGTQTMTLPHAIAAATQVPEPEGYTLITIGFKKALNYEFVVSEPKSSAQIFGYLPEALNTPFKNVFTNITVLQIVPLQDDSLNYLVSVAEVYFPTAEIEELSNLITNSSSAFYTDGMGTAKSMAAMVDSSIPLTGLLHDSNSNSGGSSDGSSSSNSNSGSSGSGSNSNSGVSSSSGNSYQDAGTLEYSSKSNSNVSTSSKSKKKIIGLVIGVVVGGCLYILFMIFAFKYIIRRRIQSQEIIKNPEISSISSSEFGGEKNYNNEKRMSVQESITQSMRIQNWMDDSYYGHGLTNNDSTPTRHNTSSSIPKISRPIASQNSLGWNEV

Variants of: B1
Details: with hkr1_yeast HKR1, P41809
Sequence of hkr1_yeast HKR1, P41809 (P41809 whole entry): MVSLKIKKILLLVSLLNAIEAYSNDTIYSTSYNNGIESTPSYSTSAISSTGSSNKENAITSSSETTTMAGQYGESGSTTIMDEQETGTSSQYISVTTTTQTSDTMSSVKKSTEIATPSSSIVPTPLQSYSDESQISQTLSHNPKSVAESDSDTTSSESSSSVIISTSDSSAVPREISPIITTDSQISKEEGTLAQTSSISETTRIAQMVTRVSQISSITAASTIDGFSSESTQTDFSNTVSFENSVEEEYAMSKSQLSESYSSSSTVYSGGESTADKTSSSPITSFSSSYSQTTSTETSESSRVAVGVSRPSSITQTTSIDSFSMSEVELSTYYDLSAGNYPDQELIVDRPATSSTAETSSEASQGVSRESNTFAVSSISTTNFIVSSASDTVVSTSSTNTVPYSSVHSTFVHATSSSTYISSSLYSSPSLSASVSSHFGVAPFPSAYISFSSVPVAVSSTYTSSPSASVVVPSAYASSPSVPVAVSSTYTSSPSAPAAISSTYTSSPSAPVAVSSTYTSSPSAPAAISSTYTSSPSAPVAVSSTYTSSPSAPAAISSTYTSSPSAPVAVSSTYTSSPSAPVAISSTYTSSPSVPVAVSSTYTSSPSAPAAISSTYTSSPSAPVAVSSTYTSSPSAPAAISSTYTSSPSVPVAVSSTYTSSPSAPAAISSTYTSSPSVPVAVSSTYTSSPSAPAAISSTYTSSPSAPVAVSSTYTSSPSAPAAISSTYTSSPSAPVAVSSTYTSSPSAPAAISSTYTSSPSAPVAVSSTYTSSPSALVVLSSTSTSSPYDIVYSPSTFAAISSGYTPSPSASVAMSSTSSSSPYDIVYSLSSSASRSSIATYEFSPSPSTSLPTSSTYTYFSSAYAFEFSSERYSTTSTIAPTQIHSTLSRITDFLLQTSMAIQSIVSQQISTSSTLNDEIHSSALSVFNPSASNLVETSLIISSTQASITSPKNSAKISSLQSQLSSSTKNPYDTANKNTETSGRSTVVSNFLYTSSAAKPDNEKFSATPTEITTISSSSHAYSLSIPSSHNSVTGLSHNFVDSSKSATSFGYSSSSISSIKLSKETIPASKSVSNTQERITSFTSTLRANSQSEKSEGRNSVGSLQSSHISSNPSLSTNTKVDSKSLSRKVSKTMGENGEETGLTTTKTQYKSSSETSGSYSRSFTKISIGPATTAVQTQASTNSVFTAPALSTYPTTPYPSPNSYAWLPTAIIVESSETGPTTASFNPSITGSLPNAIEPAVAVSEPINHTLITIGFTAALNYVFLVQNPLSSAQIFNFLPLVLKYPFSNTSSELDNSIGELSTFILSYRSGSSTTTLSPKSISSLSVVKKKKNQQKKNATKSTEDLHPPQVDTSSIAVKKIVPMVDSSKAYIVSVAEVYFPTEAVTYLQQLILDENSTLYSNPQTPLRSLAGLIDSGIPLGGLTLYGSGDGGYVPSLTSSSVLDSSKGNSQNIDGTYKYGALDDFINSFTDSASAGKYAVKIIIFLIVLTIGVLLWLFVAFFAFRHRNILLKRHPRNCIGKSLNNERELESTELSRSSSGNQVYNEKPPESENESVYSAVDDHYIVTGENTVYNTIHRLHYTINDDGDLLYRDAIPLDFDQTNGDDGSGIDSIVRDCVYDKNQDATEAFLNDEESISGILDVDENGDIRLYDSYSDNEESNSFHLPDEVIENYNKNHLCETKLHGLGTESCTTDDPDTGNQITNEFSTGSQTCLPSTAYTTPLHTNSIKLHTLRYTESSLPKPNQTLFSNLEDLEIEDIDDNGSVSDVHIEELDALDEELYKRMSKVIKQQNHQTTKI

| Variant | effect of a mutation on the interaction |
| --- | --- |
| Y106H | decreasing interaction |
| T108I | decreasing interaction |

Variants of: B2
Details: with msb2_yeast MSB2, P32334

| Variant | effect of a mutation on the interaction |
| --- | --- |
| Y106H | decreasing interaction |
| T108I | decreasing interaction |

Reference: IntAct's records for PubMed 17627274
